Reference: the supplement of paper PMC9170038

System: K4 kissing-loop RNA reporter
Assay: apparent KD of K4 kissing-loop reporter; higher = weaker reporter binding
Conditions: Eterna round: R107
Description: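 RNA-MaP round R107: designed RNA switches with theophylline, tryptophan, arginine or FMN aptamers are transcribed on-chip within common flanks. They are titrated with a labelled K4 kissing-loop RNA reporter in RNA-MaP buffer (100 mM Tris pH 7.5, 80 mM KCl, 4 mM MgCl2), without ligand or with the indicated ligand. Median apparent KD per design.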

[1] = input ligand: theophylline 20 uM
[2] = input ligand: tryptophan 2.4 mM
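Note: bound reporter read as fluorescence of individual clusters on recovered sequencing chips by microscopy, with normalized cluster intensities fitted with a binding model.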

Sequence | apparent KD of K4 kissing-loop reporter (input ligand: FMN 200 uM) | apparent KD of K4 kissing-loop reporter (input ligand: arginine 13.2 mM) | apparent KD of K4 kissing-loop reporter (input ligand: none) | apparent KD of K4 kissing-loop reporter [1] | apparent KD of K4 kissing-loop reporter [2]
AAGGUCACUGCUACAGUGAUGUUGUGGGAGCAGGAUAUGCUGAAAAGCAGAAGGGCUCGCUCCAGGUGACCGAAUGAAACAUUCA [whbob_SS_FMNA__2th176] | 1140 nM | 718 nM | 1290 nM | 792 nM | 1110 nM
AAUAAAAUCACGGCCGCCACUGAAUUAUUGGUAAGUAGUGAUGUUACUUUACAUAUCUAAUUUAACAGGACCGGGUGAAUAUUUA [#17 K4 Tryptophan B Exclusion] | 130 nM | 93.4 nM | 113 nM | 96.6 nM | 131 nM
AAUAAUAAUAAAUAUAGAUUGAUGAGGAAACGAGGACCGGUACGGCCGCCACUCGAGUGAUGUUCGAGAACCUCAUCAAUCAUAA [AK4.7 Exc Tryptophan A] | 171 nM | 132 nM | 166 nM | 154 nM | 382 nM
AAUACCUGAGUGAUGUUCAGGGAAUCAGAAGGAGCGUCAAUUAUGACAGGUAGGUCGCUGAAGACAUGUGUGUAUACACAUGUCC [#04 K4 Arginine A Same State] | 259 nM | 198 nM | 234 nM | 275 nM | 200 nM
AAUAGGGAUAGUGAUGUUAUCCCUUAUGAUACCAGUGCCAUCGGACACCCUUGGCAGCAUACGGGCAGUGAUGUUGUCCUUGGUG [Exclusion Theophylline A GF 16] | 106 nM | 94 nM | 101 nM | 94.8 nM | 93.8 nM
AAUCAAUACAGAAGGAGCGUGACAUUUGCUAUUGUAAUUUUAGCUAGUGAUGUUAGCAUUUCACAGGUAGGUCGCUGUACAUUUA [JR_SSArginiB_Sub010] | 275 nM | 324 nM | 354 nM | 415 nM | 259 nM
AAUGAGGACACUUGCAACAGUCCUCGAAUACGAGGACCGGUACGGCCGCCACUCGAUAACUUGCAGUGAUGUUGCAAGUAAGAAU [(T)''-(K)'-(T)'-(T1)-(T2)-(K1)-(K2)_Design2] | 227 nM | 201 nM | 207 nM | 258 nM | 311 nM
AAUUCUCUUUUUGAUACCAGCGAAUCUGAGUGAUGUUCUAAGCCAUACAAUUGAGUAAAUCGCCCUUGGCAGCAAUUCGUGGGUG [theeternabot_exclusion_KL_Theo_B_20] | 898 nM | 681 nM | 724 nM | 921 nM | 567 nM
AAUUUAUGAUCUGAUACCAGACUUUAUCUUGUUUAUAAGUCAAGUGAUGUUUGACUAUUAGUCCCUUGGCAGCAGUAUUGUUUAA [#17 K4 Theophylline B Same State] | 243 nM | 268 nM | 290 nM | 208 nM | 239 nM
ACCAUCAAAGAUGGCCAGGACUCAACUGAUACCAGAGUGGAGACACUCCCUUGGCAGCAGGUGAGUGAUGUUCACGAGUCCUGGA [Omel KL Theo A SS B v9] | 1000 nM | 801 nM | 1140 nM | 599 nM | 740 nM
ACCCGGGCCCGAAAGGGCCCGGGAAGAGAUACCAGCAGCGAAAGCUGCCCUUGGCAGCUCACUUAGUGAUGUUGAGUAUAGGGUA [#22 K4 Theophylline A Same State] | 1100 nM | 463 nM | 279 nM | 185 nM | 361 nM
ACCUAGUAGACAGGAUAUCACCAUGACAGUGAUGUUGUCAUGCUCGAUUUGAGGAAACUCAGAUCGUGAGAAGGGUCUAACGACU [FMN B SS t7] | 136 nM | 149 nM | 170 nM | 146 nM | 158 nM
ACGCGCGCGAGUGAUGUUCGGAGCGGCUGGCAGGAUAUGUAGCAAUGCAGAAGGGUCGUGGCGCUCCCUCCUGAAGGAGGGAGCG [#2 Exclusion - FMN A Attempt #25 (HarryS)] | 198 nM | 307 nM | 351 nM | 432 nM | 347 nM
ACGCGCGCGAGUGAUGUUCGGAGCGGCUGGCAGGAUAUGUAGCAAUGCAGAAGGGUCGUGGCUGCUGGUAGGAAACUACUGGCAG [#2 Exclusion - FMN A Attempt #4 (HarryS)] | 252 nM | 316 nM | 424 nM | 358 nM | 441 nM
ACGCUGGUGAAUAACACUAGCGAAAAUUCGCGAGGACCGGUACGGCCGCCACUCGCUAACUGCGAGUGAUGUUCGAUAAUAAAAU [Mat - Mod of OpenEnded 3 - D8] | 233 nM | 67.5 nM | 165 nM | 169 nM | 112 nM
ACGUGCACCAGUGAUGUUGGAAAAUAUGAAGGAGCGGGAGAAAACCCAGGUAGGUCGCAUAAUAGCACGAGCCACGAAAGUGGCA | 191 nM | 81.4 nM | 122 nM | 196 nM | 107 nM

Sequence | apparent KD of K4 kissing-loop reporter (input ligand: FMN 200 uM) | apparent KD of K4 kissing-loop reporter (input ligand: arginine 13.2 mM) | apparent KD of K4 kissing-loop reporter (input ligand: none) | apparent KD of K4 kissing-loop reporter [1] | apparent KD of K4 kissing-loop reporter [2]
ACUGAGCAUGCGGCCGCCACUUCAGAACGUCGCCCAGAGGGCGACGCCUCCGCAGUGAUGUUGUGGAGGACCGGGCAUGUUCAGA [Omei KL Tryp B Exc A v5] | 419 nM | 360 nM | 355 nM | 451 nM | 420 nM
AGACCUCAGUGAUGUUGAGGUAACACUGAUACCAGCGACUUGAUUCGCCCUUGGCAGCAGUCCACCGAGGUAUCUGAUCAGGUCA [#25 K4 Theophylline A Exclusion] | 159 nM | 158 nM | 137 nM | 168 nM | 140 nM
AGACUACCACACUGUCAAUAGACAGUGAACUAGGAUAUGCUGAUAAGCAGAAGGAGUGAUGUUCCUCGGUAGUCAAUAAAAUAAU [FmnAX 13 C67] | 419 nM | 255 nM | 303 nM | 346 nM | 235 nM
AGACUACCACACUGUCAAUAGACAGUGUACUAGGAUAUGCUGAUAAGCAGAAGGAGUGAUGUUCCAAGGUAGUCAAUAAAAUAAU [FmnAX 13 U28+A66] | 393 nM | 213 nM | 206 nM | 291 nM | 206 nM
AGACUACUGAUAGGAUAUAACAUCCUAGUCGUAUACCGAAAGGUAUACGAUUCCCUUCUAGUGAUGUUAGAAGGGUCGGUAGUCA [Omei KL FMN B Exc B v12] | 78.5 nM | 69.2 nM | 71.3 nM | 60.9 nM | 78.9 nM
AGACUUCACCGAAGGAGCGACGUAGCCUAGUGAUGUUAGGCGCGAGAGAAAUCUCGUAUACGUCAGGUAGGUCGCGGUGAAGUCA [Omei KL Arginine B SS C v4] | 163 nM | 129 nM | 152 nM | 126 nM | 146 nM
AGAGAGGUGUUUUUUUGAAGUGAGUAAUGGCGAGGACCGGUACGGCCGCCACUCGGGUGAUGUUAGUGAUGUUGAUGUAGUGAUG [yrymullin] | 79.3 nM | 60.8 nM | 66.3 nM | 114 nM | 65.6 nM
AGAGAUAUAUGAGGAUAUGAGAUAGUUAAUGAGUGAGUUAUAGUGUUGUUUGGUUAGUGAUGUUAUUUAGAAGGCGUGAGUGAUG [immumullin] | 130 nM | 94.7 nM | 110 nM | 119 nM | 82.5 nM
AGAGAUAUAUGAGGAUAUGGGAUAGUUAAUGAGUUAGUUUUAGUGUUGUUUGGUUAGUGAUGUUAUUUAGAAGGCGUGAGUGAUG [rxxvgmullin] | 106 nM | 75.8 nM | 81.7 nM | 109 nM | 71.1 nM
AGAUUCGACACGGCCGCCACUUCCGGUGGCUGGUGUCAUGGUGCGCGUGAGUGAUGUUUAUGUGGAAGGACCGGGUGUUGAGUCU [whbob_Ex_Tryp_B_w41] | 597 nM | 525 nM | 730 nM | 751 nM | 872 nM
AGCAAUAUCACGGCCGCCACUGAUUAUUGUUUUUAUAGUUAUAAAUCUUGCCAGUGAUGUUGGUUCAGGACCGGGUGAGUUAAUA [JR_SSTryptoB_Sub002] | 498 nM | 565 nM | 727 nM | 620 nM | 373 nM
AGCAGGAGUGAUGUUCCUGUGGCAUAAGUUCGAGGACCGGUACGGCCGCCACUCGUAACAUUAAUCCGUCCUUGAUCAGAUAAGA [theeternabot_sameState_KL_Trp_A_12] | 195 nM | 186 nM | 216 nM | 243 nM | 101 nM
AGCAGUCAACUCGAAACCAUCGAAGAUGGUCGAGGACCGGUACGGCCGCCACUCGGAGUGAUGUUCCGAAGACUGCAAAAUAAAA [#SwitchBubble 14] | 283 nM | 299 nM | 307 nM | 328 nM | 477 nM
AGCAGUCACUCGAAAAACCAUCGAAGAUGGCGAGGACCGGUACGGCCGCCACUCGGAGUGAUGUUCCGAAGACUGCAAAAUAAAA [#SwitchBubble 15] | 350 nM | 438 nM | 368 nM | 313 nM | 435 nM
AGCCGAAAGGCGAGUGCUGUCGCUCCGGAAGGAGCGCAGGAAACUGCAGGUAGGUCGCCGGAGUGAUGUUUUGGUGCAGCACUCA [Omei KL Arginine A Exc B v7] | 163 nM | 218 nM | 129 nM | 132 nM | 134 nM
